Series [1] deals with HeLa Kyoto. The series is described as follows: solubility change mitosis vs G1/S (difference of NP-40 vs SDS log2 ratios) (log2 ratio difference); higher = more soluble in mitosis.
In series [2] the test system is HeLa Kyoto. The series is described as follows: melting temperature (median over replicates), in situ; higher = more thermally stable.
The subject of series [3] is HeLa Kyoto. The series is described as follows: solubility in G1/S (NP-40 vs SDS abundance) (log2 ratio); higher = more soluble. The note with it: cell cycle stage: G1/S.
For series [4], the system named is HeLa Kyoto. The series is described as follows: thermal stability score vs G1/S (z-score of summed log2 fold changes over temperatures); higher = more thermally stable than in G1/S.
[5] abbreviates: cell cycle stage: early G1 (4.5 h after nocodazole release).
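Wherever melting temperature (median over replicates), in situ is given: HeLa Kyoto cells synchronized by double thymidine or nocodazole block, proteins quantified by TMT10plex mass spectrometry, three independent biological replicates.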
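Wherever solubility change mitosis vs G1/S (difference of NP-40 vs SDS log2 ratios) is given: synchronized HeLa Kyoto cells (double thymidine block for G1/S, nocodazole release for mitosis), protein amounts in NP-40 versus SDS lysates quantified by mass spectrometry, three biological replicates.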
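Wherever solubility in G1/S (NP-40 vs SDS abundance) is given: HeLa Kyoto cells arrested at G1/S by double thymidine block, proteins quantified by TMT10plex mass spectrometry in mild NP-40 versus SDS extracts, three biological replicates.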
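Wherever thermal stability score vs G1/S (z-score of summed log2 fold changes over temperatures) is given: synchronized HeLa Kyoto cells, proteins quantified by TMT10plex mass spectrometry, three biological replicates, mitosis taken 0.5 h after nocodazole release, G1/S directly after double thymidine block.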

Take “MALRGVSVRLLSRGPGLHVLRTWVSSAAQTEKGGRTQSQLAKSSRPEFDWQDPLVLEEQLTTDEILIRDTFRTYCQERLMPRILLANRNEVFHREIISEMGELGVLGPTIKGYGCAGVSSVAYGLLARELERVDSGYRSAMSVQSSLVMHPIYAYGSEEQRQKYLPQLAKGELLGCFGLTEPNSGSDPSSMETRAHYNSSNKSYTLNGTKTWITNSPMADLFVVWARCEDGCIRGFLLEKGMRGLSAPRIQGKFSLRASATGMIIMDGVEVPEENVLPGASSLGGPFGCLNNARYGIAWGVLGASEFCLHTARQYALDRMQFGVPLARNQLIQKKLADMLTEITLGLHACLQLGRLKDQDKAAPEMVSLLKRNNCGKALDIARQARDMLGGNGISDEYHVIRHAMNLEAVNTYEGTHDIHALILGRAITGIQAFTASK [GCDH]”: the “solubility change mitosis (log2)” value with HeLa Kyoto [1] is -0.103. For the same substance, the values for the melting temperature in the series with HeLa Kyoto [2] (cell cycle stage: G1/S) and with HeLa Kyoto [2] (cell cycle stage: mitosis) were 54.2 °C and 54.7 °C, respectively. The “solubility in G1/S (log2)” value in the series on HeLa Kyoto [3] stood at 0.217. The thermal stability score with HeLa Kyoto [4] (setting [5]) is -0.63; in the series with HeLa Kyoto [4] (cell cycle stage: mitosis), 1.21.
Take “MEDTPLVISKQKTEVVCGVPTQVVCTAFSSHILVVVTQFGKMGTLVSLEPSSVASDVSKPVLTTKVLLGQDEPLIHVFAKNLVAFVSQEAGNRAVLLAVAVKDKSMEGLKALREVIRVCQVW [PSMG3]”: the “solubility change mitosis (log2)” value with HeLa Kyoto [1] is -0.0857. In addition, the melting temperature in the series with HeLa Kyoto [2] (cell cycle stage: G1/S) came to 57.8 °C; in the series on HeLa Kyoto [2] (cell cycle stage: mitosis), 56.2 °C. Besides, the “solubility in G1/S (log2)” value with HeLa Kyoto [3] was 0.13. The values for the thermal stability score in the series on HeLa Kyoto [4] (setting [5]) and with HeLa Kyoto [4] (cell cycle stage: mitosis) were -1.46 and -2.93, respectively.
As to “MSRFVQDLSKAMSQDGASQFQEVIRQELELSVKKELEKILTTASSHEFEHTKKDLDGFRKLFHRFLQEKGPSVDWGKIQRPPEDSIQPYEKIKARGLPDNISSVLNKLVVVKLNGGLGTSMGCKGPKSLIGVRNENTFLDLTVQQIEHLNKTYNTDVPLVLMNSFNTDEDTKKILQKYNHCRVKIYTFNQSRYPRINKESLLPVAKDVSYSGENTEAWYPPGHGDIYASFYNSGLLDTFIGEGKEYIFVSNIDNLGATVDLYILNHLMNPPNGKRCEFVMEVTNKTRADVKGGTLTQYEGKLRLVEIAQVPKAHVDEFKSVSKFKIFNTNNLWISLAAVKRLQEQNAIDMEIIVNAKTLDGGLNVIQLETAVGAAIKSFENSLGINVPRSRFLPVKTTSDLLLVMSNLYSLNAGSLTMSEKREFPTVPLVKLGSSFTKVQDYLRRFESIPDMLELDHLTVSGDVTFGKNVSLKGTVIIIANHGDRIDIPPGAVLENKIVSGNLRILDH [UGP2]”, the “solubility change mitosis (log2)” value in the series with HeLa Kyoto [1] is -0.072. Besides, the melting temperature with HeLa Kyoto [2] (cell cycle stage: G1/S) was found to be 55.9 °C; in the series with HeLa Kyoto [2] (cell cycle stage: mitosis), 56 °C. Besides, in the series on HeLa Kyoto [3], the “solubility in G1/S (log2)” value is 0.158. Further, the thermal stability score in the series with HeLa Kyoto [4] (setting [5]) stood at 0.682; with HeLa Kyoto [4] (cell cycle stage: mitosis), 0.921.
Regarding “MDFQHRPGGKTGSGGVASSSESNRDRRERLRQLALETIDINKDPYFMKNHLGSYECKLCLTLHNNEGSYLAHTQGKKHQTNLARRAAKEAKEAPAQPAPEKVKVEVKKFVKIGRPGYKVTKQRDSEMGQQSLLFQIDYPEIAEGIMPRHRFMSAYEQRIEPPDRRWQYLLMAAEPYETIAFKVPSREIDKAEGKFWTHWNRETKQFFLQFHFKMEKPPAPPSLPAGPPGVKRPPPPLMNGLPPRPPLPESLPPPPPGGLPLPPMPPTGPAPSGPPGPPQLPPPAPGVHPPAPVVHPPASGVHPPAPGVHPPAPGVHPPAPGVHPPTSGVHPPAPGVHPPAPGVHPPAPGVHPPAPGVHPPAPGVHPPPSAGVHPQAPGVHPAAPAVHPQAPGVHPPAPGMHPQAPGVHPQPPGVHPSAPGVHPQPPGVHPSNPGVHPPTPMPPMLRPPLPSEGPGNIPPPPPTN [SF3A2]”, the “solubility change mitosis (log2)” value with HeLa Kyoto [1] amounted to 0.322. Further, the melting temperature with HeLa Kyoto [2] (cell cycle stage: G1/S) is 50 °C; with HeLa Kyoto [2] (cell cycle stage: mitosis) it was 50.5 °C. Moreover, the “solubility in G1/S (log2)” value in the series on HeLa Kyoto [3] is 0.0115. In addition, the thermal stability score in the series with HeLa Kyoto [4] (setting [5]) was -1.16; in the series with HeLa Kyoto [4] (cell cycle stage: mitosis) it was -1.41.
For the substance AHCTF1, the “solubility change mitosis (log2)” value in the series with HeLa Kyoto [1] stood at 1.06. In addition, the melting temperature in the series on HeLa Kyoto [2] (cell cycle stage: G1/S) worked out at 50.7 °C; in the series with HeLa Kyoto [2] (cell cycle stage: mitosis) it was 50.5 °C. Further, in the series with HeLa Kyoto [3], the “solubility in G1/S (log2)” value is -1.38. Moreover, the thermal stability score in the series on HeLa Kyoto [4] (setting [5]) was -1.63; in the series on HeLa Kyoto [4] (cell cycle stage: mitosis), -0.353.
“MEPTAPSLTEEDLTEVKKDALENLRVYLCEKIIAERHFDHLRAKKILSREDTEEISCRTSSRKRAGKLLDYLQENPKGLDTLVESIRREKTQNFLIQKITDEVLKLRNIKLEHLKGLKCSSCEPFPDGATNNLSRSNSDESNFSEKLRASTVMYHPEGESSTTPFFSTNSSLNLPVLEVGRTENTIFSSTTLPRPGDPGAPPLPPDLQLEEEGTCANSSEMFLPLRSRTVSRQ [BCL10]”: the “solubility change mitosis (log2)” value in the series on HeLa Kyoto [1] turned out to be 0.181. The melting temperature in the series with HeLa Kyoto [2] (cell cycle stage: G1/S) amounted to 49.8 °C; with HeLa Kyoto [2] (cell cycle stage: mitosis) it was 50.5 °C. Further, in the series with HeLa Kyoto [3], the “solubility in G1/S (log2)” value is 0.624. For the same substance, the thermal stability score in the series on HeLa Kyoto [4] (setting [5]) was -0.239; in the series with HeLa Kyoto [4] (cell cycle stage: mitosis), -0.726.
For “MDRGTLPLAVALLLASCSLSPTSLAETVHCDLQPVGPERGEVTYTTSQVSKGCVAQAPNAILEVHVLFLEFPTGPSQLELTLQASKQNGTWPREVLLVLSVNSSVFLHLQALGIPLHLAYNSSLVTFQEPPGVNTTELPSFPKTQILEWAAERGPITSAAELNDPQSILLRLGQAQGSLSFCMLEASQDMGRTLEWRPRTPALVRGCHLEGVAGHKEAHILRVLPGHSAGPRTVTVKVELSCAPGDLDAVLILQGPPYVSWLIDANHNMQIWTTGEYSFKIFPEKNIRGFKLPDTPQGLLGEARMLNASIVASFVELPLASIVSLHASSCGGRLQTSPAPIQTTPPKDTCSPELLMSLIQTKCADDAMTLVLKKELVAHLKCTITGLTFWDPSCEAEDRGDKFVLRSAYSSCGMQVSASMISNEAVVNILSSSSPQRKKVHCLNMDSLSFQLGLYLSPHFLQASNTIEPGQQSFVQVRVSPSVSEFLLQLDSCHLDLGPEGGTVELIQGRAAKGNCVSLLSPSPEGDPRFSFLLHFYTVPIPKTGTLSCTVALRPKTGSQDQEVHRTVFMRLNIISPDLSGCTSKGLVLPAVLGITFGAFLIGALLTAALWYIYSHTRSPSKREPVVAVAAPASSESSSTNHSIGSTQSTPCSTSSMA [ENG]”, the “solubility change mitosis (log2)” value in the series on HeLa Kyoto [1] was -0.131. The results for the melting temperature with HeLa Kyoto [2] (cell cycle stage: G1/S) and in the series with HeLa Kyoto [2] (cell cycle stage: mitosis) were 56.1 °C and 55.6 °C, respectively. The “solubility in G1/S (log2)” value in the series on HeLa Kyoto [3] was 0.178. Besides, the thermal stability score in the series on HeLa Kyoto [4] (setting [5]) is -1.8; in the series with HeLa Kyoto [4] (cell cycle stage: mitosis), -2.37.

The record behind these values is the supplement of paper PMC5998384.
